From the supplement of paper PMC9170038

Test system: MS2 coat protein
Test: apparent KD of MS2 coat protein; designed switch direction (-1 OFF switch, 1 ON switch): -1; higher = weaker reporter binding
Procedure, shortened: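 On Illumina chips, designed RNA switches with common flanks were made by stalled E. coli RNA polymerase. Titrations with SNAP-549-labelled MS2 coat protein, doubling from 0.7 or 1.5 nM to 3 µM, were done with no input, with 200 uM small-molecule ligand, or with an oligonucleotide input. Apparent KD is the median per design over clusters, from curve fits of normalised cluster fluorescence.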

[1] = input ligand: microRNA oligo, concentration not stated
[2] = Eterna round: R95, input ligand: microRNA oligo, concentration not stated
[3] = Eterna round: R95, input ligand: FMN 200 uM
[4] = Eterna round: R95, input ligand: none

Row | Sequence | apparent KD of MS2 coat protein (input ligand: FMN 200 uM) [nM] | apparent KD of MS2 coat protein (input ligand: none) [nM] | apparent KD of MS2 coat protein [1] [nM] | apparent KD of MS2 coat protein [2] [nM] | apparent KD of MS2 coat protein [3] [nM] | apparent KD of MS2 coat protein [4] [nM]
1 | AACUAUUUAGGAUAUCAGGCGAACCACAUGAGGAUCACCCAUGUGGCCCGUUGUGGUCCUUGAGAAGGAAAGAGUU [EX5 B.15] (Eterna round: R97, puzzle: Exclusion 5) | 53.5 | 22.7 | – | – | – | –
2 | CGUCUGUAAGGAUAUGGUUACAUAGACAUGAGGAUCACCCAUGUUACGUGGGACUAGUGAUUAGAAGGUACGAACG [EX5 #67] (Eterna round: R97, puzzle: Exclusion 5) | 54.7 | 51.2 | – | – | – | –
3 | CAAGAAAAGAAAGGAUAUAGCGCGGAGCCGCAGCUAGAAGGUUCGGUGGGUAUCCUGUAACAUGAGGAUCACCCAUGUAAAGAG [Texelara] (Eterna round: R96, puzzle: Exclusion NG 1) | 499 | 527 | 109 | – | – | –
4 | UGUUGUUACGUAGGAUAUGGCCAACAGGCCCUAGGAUAUGCGAAAGCAGAAGGAGCGCCAACAGGCGAGAAGGACGGGUUAACA [pwkr exNG2 2xF7 2xFMN.15] (Eterna round: R96, puzzle: Exclusion NG 2) | 50.2 | 60.5 | 78.2 | – | – | –
5 | ACGCAUUGCCUUUGGUAGUGCGUUACAUGAGGAUCACCCAUGUAGGAUAUGGUAGGCAAAGCUUACCAGAAGGACAUGAUAAUU [Mat - Exclusion NG 3 - Mod of JL - D5] (Eterna round: R96, puzzle: Exclusion NG 3) | – | – | 41.8 | – | – | –
6 | UUUUUUGUUGUGAGGAUAUCGUAUUUUUUUUGUUACGAGAAGGCACAUGAGGAUCACCCAUGUUUCUUGAUGUU [JR_BMOE4_Sub066] (puzzle: Brourd's mod of Exclusion 4) | – | – | – | 16.8 | – | –
7 | UUAUUAAUUAAUAUUAUAAGAUCACAUGAGGAUCACCCAUGUCAGGAUAUCAGCUCGUUUAGAGCUGAGAAGGGACAAAUAAUA [ExNG3/15-B2] (Eterna round: R96, puzzle: Exclusion NG 3) | 118 | 189 | 187 | – | – | –
8 | AGUACUAACACGAAAGUGUUAGUACCAUAAGCUUGUGAAACAUGAGGAUCACCCAUGUCCUCAUAAGCUCGUCUUAU [salish99_TOv2_r3_041] (puzzle: Sensor v3, turn-off variant 2) | – | – | – | 720 | 18.8 | 19.5
9 | UAAACAAGCGAAAGAUCCCACAUGAGGAUCACCCAUGUGCUCGUCUUAUAAGGUACUGUGACGAAAGUCACGGUACC [Sensor 3, v1 - 91 v19] (Eterna round: R97, puzzle: Sensor, turn-off variant 1) | 37.9 | 41 | – | – | – | –
10 | UUUAUAUAGUAAGGAUAUGUAUUAUUUUUUUCAACAGAAGGUACUGACAUGAGGAUCACCCAUGUUUUAGUGUGGGCAUGUAGU [JMF's solution 98] (Eterna round: R96, puzzle: Exclusion NG 1) | – | – | 323 | – | – | –
11 | GGAAAGGUAGGAUAUACGAAGAAAAAGGGUAGAAUAAUAACACAUGAGGAUCACCCAUGUAGAAGGACCAAAGC [Mat - Exclusion 2 - Mod of my Tesla design - D13] (puzzle: Exclusion 2) | – | – | – | 21 | 49.5 | 25.4
12 | UGAACCCAUGUUAGGAUAUCAGGCCGAGGAAGUUCUGAGAAGGGACAUGAGGAUCACCCAUGUAUAAAAGAAAC [Veontiinge] (Eterna round: R96, puzzle: Brourd's mod of Exclusion 4) | 44.1 | 51.7 | 44.6 | – | – | –
13 | GGUUUGGGAGGAUAUGGUUUGAAUAACAUGAGGAUCACCCAUGUAAAUAGAUCUUCUAGGCCAGAAGGCUCGGGCC [-22.1, -20.72 kcal, A 28%] (Eterna round: R97, puzzle: Exclusion 5) | 46 | 27.8 | – | – | – | –
14 | CUGAGGUAGCGGUCCUAUGACAUGAGGAUCACCCAUGUACCUUGCUACGAGCUUUUUGCUCGUCUUAUGAUUCUCGG [JL Atriat mod 4] (puzzle: Sensor v3, turn-off variant 1) | – | – | – | 93.9 | 166 | 250
15 | UGAAGUAGAGGAUAUACGUGGAAAUAGAUUCAUGUUAAUCUACAUGAGGAUCACCCAUGUAGAAGGCUAUAGAU [JR_Ex2_Sub074] (Eterna round: R97, puzzle: Exclusion 2) | 69.3 | 24.3 | – | – | – | –
16 | CGCAUGCAAGGAUAUACUUGCAGUGAUAUUCGAUAAAGUCUACUUGAGGAUCACCCAAGUAGAAGGUGCAUGCG [Exclusion 2 (Mod6.1 JL EX2 4.74 Vienna UCT mod of Mamaed)] (Eterna round: R97, puzzle: Exclusion 2) | 33.3 | 25 | – | – | – | –
17 | UGCCAGCGAGGAUAUGCUAGAGGUGUUCCGUGCUCUAAGGGACAUGAGGAUCACCCAUGUAGAAGGCGCACGUC [Eternabot (L1) Solution 20] (Eterna round: R97, puzzle: Exclusion 2) | 187 | 194 | – | – | – | –

Row | Sequence | apparent KD of MS2 coat protein (input ligand: FMN 200 uM) [nM] | apparent KD of MS2 coat protein (input ligand: none) [nM] | apparent KD of MS2 coat protein [1] [nM] | apparent KD of MS2 coat protein [2] [nM] | apparent KD of MS2 coat protein [3] [nM] | apparent KD of MS2 coat protein [4] [nM]
18 | CAGGACAGAGGAUAUACAUAGAUACAGAUUCAUGUAGAACUACAUGAGGAUCACCCAUGUAGAAGGCUGUCCUG [Fiskers Ex 2 - 3] (puzzle: Exclusion 2) | – | – | – | 27.8 | – | –
19 | GGCCGGGCAGGAUAUGCGUGGGUCCUCAUGAGGACCCACGUACAUGAGGAUCACCCAUGUAGAAGGGCCCGGCC (Eterna round: R97, puzzle: Exclusion 2) | 17.6 | 14.2 | – | – | – | –
20 | CGGCAUGUAGAAGGAUAUCUGCACGUUUAGUGCAGAGAAGGUCUAACAUGAGGAUCACCCAUGUAGAUCAUUAACCGAUUAAUU [ENG1/8-A2] (Eterna round: R96, puzzle: Exclusion NG 1) | 19.5 | 12.1 | 10.4 | – | – | –
21 | AUAAUGUAAGGAUAUCAGUCGACUAGCUGCGGCUAGUCGACUGAGAAGGUACAUGAGGAUCACCCAUGUGAUUA [E4/10-A3] (Eterna round: R97, puzzle: Exclusion 4) | 889 | 138 | – | – | – | –
22 | UAAUGUAUAUAGGAUAUCUAGCUGGAAACAGCUAGAGAAGGAUGUACAUGAGGAUCACCCAUGUAAAUCUCAAU [Ex6/12-B1] (Eterna round: R97, puzzle: Exclusion 6) | 27.4 | 19.1 | – | – | – | –
23 | GUAGAGUCAGGAUAUACGAGAUCGAAAGAUCUUUGAUCCUUACAUGAGGAUCACCCAUGUAGAAGGGACUCUAC [Omei mod 2 to Eli's favorate candidate (ch.parushev)] (Eterna round: R97, puzzle: Exclusion 2) | 513 | 43.2 | – | – | – | –
24 | GCGCCUUGAGUGAGGAUAUGUUCAUAGUCGCUUGGAUAGAAGGCACAUGAGGAUCACCCAUGUAUCGGAGUUAA [Eternabot (L2) Solution 39] (Eterna round: R97, puzzle: Brourd's mod of Exclusion 4) | 48.2 | 33.9 | – | – | – | –
25 | CAUUGUGUUGAGGAUAUGCGCCGGCUCGCUGGCGCAGAAGGCGGCACAUGAGGAUCACCCAUGUCAGUUCGCGA [salish99_ex6_r004_416] (Eterna round: R97, puzzle: Exclusion 6) | 452 | 38 | – | – | – | –
26 | AAAAUAAUAAGUUUACGAACAUUUAGAAAAAGGGAUCCAACAUGAGGAUCACCCAUGUAUUAUCAGCAUAAACCCUA [JR_Sensorv2_tov2_Sub1270] (Eterna round: R96, puzzle: Sensor v2, turn-off variant 2) | 341 | 360 | 270 | – | – | –
27 | AGUACUAUCACGAAAGUGAUAGUACAAAAUAACAAGUGAACAUGAGGAUCACCCAUGUCCUCAUUUGCUCGUCUUAU [Sensor 3 - 18] (puzzle: Sensor v3, turn-off variant 2) | – | – | – | 925 | 418 | 421
28 | CUGGUCCGAGGAUAUAUGAUGUGAAACAUGAGGAUCACCCAUGUAAUAUUAUGGAGGUAAAUAGAAGGCGGACUAG [Mat - Exclusion 5 - JL mod - D35] (puzzle: Exclusion 5) | – | – | – | 55.2 | 45.3 | 60
29 | AACCAGCGAGGAUAUGCUUGCGCGUGUUCUGGUUAUAAUCGACUUGAGGAUCACCCAAGUAGAAGGUGCUGGCG [EX2 #55] (Eterna round: R97, puzzle: Exclusion 2) | 360 | 147 | – | – | – | –
30 | AAUAACAGAGGAUAUACUAUUUUAUGUGUUUGUUGUUUUAAACAUGAGGAUCACCCAUGUAGAAGGCUGAGUAA [JMF 33] (puzzle: Exclusion 2) | – | – | – | 21.8 | – | –
31 | UCAAGUAUGUAGGAUAUGAUGUGAUUGUACAUAUCAGAAGGACGUACAUGAGGAUCACCCAUGUAACUUGCAUG [Exclusion 6 - B - 12:b] (puzzle: Exclusion 6) | – | – | – | 144 | 43.1 | 144
32 | GAGUGAAGUGCAGGAUAUCUAGAAGGAAGAAGGAGGAAACAUGAGGAUCACCCAUGUAAUCCAUAAGAGAAGGGCGGAGAGGAG [An ugly monster] (Eterna round: R96, puzzle: Exclusion NG 2) | 16.3 | 18.3 | 14.3 | – | – | –
33 | GUGUAGAUAGGAUAUACGAGAGUCUAGCGAAGCUAGAUUCUACAUGAGGAUCACCCAUGUAGAAGGGUCUACAC [Fiskers Ex 2 - 30] (puzzle: Exclusion 2) | – | – | – | 14.2 | – | –
34 | GCAGGAUAAGUCAGGAUAUACCUAUGGAUACAUAGGUAGAAGGGACAUGAGGAUCACCCAUGUUACUCGCCUGC [Fiskers BMX 4 - 74] (puzzle: Brourd's mod of Exclusion 4) | – | – | – | 13.6 | – | –
